# Test results reported in paper PMC7083852, “Ultrafast in-gel detection by fluorescent super-chelator probes with HisQuick-PAGE” (Communications Biology, 2020).
# T1: Thermus thermophilus multidrug-resistance protein A (TmrA), C-terminal His10-tag (Thermus thermophilus, UniProt Q72J05 1-600)
# T1 construct: Thermus thermophilus multidrug-resistance protein A (TmrA), subunit of the heterodimeric ABC transporter TmrAB; Produced and purified together with TmrB as the heterodimer TmrAB; also called His10-tagged subunit of TmrAB; not shown: His10, C-terminal, kept
# T1 sequence (looked up): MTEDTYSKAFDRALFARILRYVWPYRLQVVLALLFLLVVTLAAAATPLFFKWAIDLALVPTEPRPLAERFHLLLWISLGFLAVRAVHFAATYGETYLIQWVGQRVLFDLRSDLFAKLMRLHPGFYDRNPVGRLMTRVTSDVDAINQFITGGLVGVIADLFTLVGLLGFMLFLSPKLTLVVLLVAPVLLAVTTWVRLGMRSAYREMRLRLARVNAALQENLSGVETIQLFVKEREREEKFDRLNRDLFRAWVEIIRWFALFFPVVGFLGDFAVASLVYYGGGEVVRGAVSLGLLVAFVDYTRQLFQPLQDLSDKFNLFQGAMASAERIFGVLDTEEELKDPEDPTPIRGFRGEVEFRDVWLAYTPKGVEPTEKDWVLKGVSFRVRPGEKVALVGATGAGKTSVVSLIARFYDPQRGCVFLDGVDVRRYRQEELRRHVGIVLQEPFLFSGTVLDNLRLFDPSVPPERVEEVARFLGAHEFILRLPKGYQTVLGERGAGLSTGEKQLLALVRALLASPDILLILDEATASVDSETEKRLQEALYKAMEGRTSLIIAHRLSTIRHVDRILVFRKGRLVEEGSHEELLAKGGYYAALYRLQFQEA
# B1: Thermus thermophilus multidrug-resistance protein B (TmrB) (natural protein, UniProt Q72J04 1-578, looked up)
# chain: MTGRSAAPLLRRLWPYVGRYRWRYLWAVLAGLVSIFFFVLTPYFLRLAVDAVQAGRGFGVYALAIVASAALSGLLSYAMRRLAVVASRQVEYDLRRDLLHHLLTLDRDFYHKHRVGDLMNRLNTDLSAVREMVGPGILMGSRLSFLVLLAFLSMYAVNARLAFYLTLILPGIFLAMRFLLRLIDRRYREAQEVFDRISTLAQEAFSGIRVVKGYALERRMVAWFQDLNRLYVEKSLALARVEGPLHALLGFLMGFAFLTVLWAGGAMVVRGELSVGELVQFNAYLAQLTWPILGLGWVMALYQRGLTSLRRLFELLDEKPAIRDEDPLPLALEDLSGEVRFEGVGLKRDGRWLLRGLTLTIPEGMTLGITGRTGSGKSLLAALVPRLLDPSEGRVYVGGHEARRIPLAVLRKAVGVAPQEPFLFSETILENIAFGLDEVDRERVEWAARLAGIHEEILAFPKGYETVLGERGITLSGGQRQRVALARALAKRPKILILDDALSAVDAETEARILQGLKTVLGKQTTLLISHRTAALRHADWIIVLDGGRIVEEGTHESLLQAGGLYAEMDRLQKEVEA
# notes: Thermus thermophilus multidrug-resistance protein B (TmrB), subunit of the heterodimeric ABC transporter TmrAB; Produced and purified together with TmrA as the heterodimer TmrAB; also called subunit of TmrAB
# Biological target: T1, Thermus thermophilus …
# Test: native gel or EMSA; blue native PAGE of purified TmrAB (1.3 µg, 500 nM; produced in E. coli and purified as a whole via His10 on TmrA and by SEC) in DDM or reconstituted in MSP1D1 nanodiscs; labelled with tris- or hexaNTA-Alexa647 (450 nM), in-gel fluorescence
# Conditions: both partners purified
binder,measurement,value
B1,binding result,binds
